Reference: the supplement of paper PMC6757056
± gives the standard deviation of the averaged measurements.

B1: library; a variant is named by its letters at N, in order (parent)
chain: GCUGUCACCGGUGUAUUACCCUAGUGGUCGACCGGUCUGAUGAGUCUNNNNNNAGACGAAACAGC

Legend:
hypoxanthine [1] = variants of: B1; experiment: normalized RNA/DNA level with ligand (relative to sTRSVctl = 100) (log10 (% of sTRSVctl)); ligand: hypoxanthine (xanthine aptamer); higher = less ribozyme self-cleavage, higher mRNA level; conditions: ligand concentration (+) RNA-Seq: 5 mM, HEK293T, reporter: mCherry (pCS4076), ligand present: yes
Method in brief: (§1)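 Total RNA, extracted with EDTA 72 h after HEK293T cells were transfected with 4 µg per 6-well well of reporter-linked ribozyme switch library plasmids, was reverse-transcribed, amplified, barcoded and sequenced. Ligand, if used, was added 1 h before transfection. RNA level was derived from RNA reads divided by DNA reads and normalized to a spiked-in non-cleaving sequence or to the top sequences. This was multiplied by 100 and log10-transformed, with the top set of 25 sequences and a ≥100 DNA read minimum.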

hypoxanthine [2] = variants of: B1; experiment: normalized RNA/DNA level without ligand (relative to sTRSVctl = 100) (log10 (% of sTRSVctl)); ligand: hypoxanthine (xanthine aptamer); higher = less ribozyme self-cleavage, higher mRNA level; conditions: HEK293T, reporter: mCherry (pCS4076), ligand present: no
Method in brief: as §1

| Variant | normalized RNA/DNA level with ligand (log10) (hypoxanthine [1]) | normalized RNA/DNA level without ligand (log10) (hypoxanthine [2]) |
| --- | --- | --- |
| GGCCGC | 1.879 ± 0.014 | 1.7 ± 0.06 |
| GGCCGG | 1.95 ± 0.039 | 1.84 ± 0.026 |
| CGCCAA | 1.94 ± 0.02 | 1.82 ± 0.064 |
| CGCCAU | 1.88 ± 0.046 | 1.87 ± 0.021 |
| CGCCAC | 1.92 ± 0.043 | 1.84 ± 0.05 |
| CGCGAU | 1.904 ± 0.0019 | 1.79 ± 0.036 |
| CGCGAC | 1.97 ± 0.067 | 1.75 ± 0.059 |
| CGCGAG | 1.84 ± 0.06 | 1.67 ± 0.011 |
| CGCGAA | 1.87 ± 0.029 | 1.7 ± 0.028 |
| AGCGAU | 1.9 ± 0.037 | 1.73 ± 0.076 |
| GGCCUU | 1.975 ± 0.013 | 1.968 ± 0.011 |
| GGCCUA | 1.98 ± 0.063 | 1.98 ± 0.026 |
| GGCCUC | 1.99 ± 0.13 | 1.96 ± 0.084 |
| UGCAGC | 1.98 ± 0.074 | 1.83 ± 0.055 |
| GGCGGC | 1.885 ± 0.015 | 1.525 ± 0.0082 |
| GGCGGG | 1.93 ± 0.034 | 1.83 ± 0.061 |
| GGCGGU | 1.957 ± 0.014 | 1.949 ± 0.017 |
| UGCGUU | 1.986 ± 0.0098 | 1.921 ± 0.0049 |
| UGCGUG | 1.88 ± 0.027 | 1.68 ± 0.084 |
| UGCGUC | 1.989 ± 0.0044 | 2.031 ± 0.0052 |

| Variant | normalized RNA/DNA level with ligand (log10) (hypoxanthine [1]) | normalized RNA/DNA level without ligand (log10) (hypoxanthine [2]) |
| --- | --- | --- |
| AGCAGU | 1.83 ± 0.03 | 1.44 ± 0.036 |
| UGCGGU | 1.905 ± 0.01 | 1.742 ± 0.0036 |
| UGCGGG | 1.98 ± 0.11 | 1.754 ± 0.0048 |
| GGCCAG | 1.89 ± 0.026 | 1.67 ± 0.033 |
| GGCCAC | 1.997 ± 0.011 | 1.861 ± 0.0085 |
| GGCCAU | 1.957 ± 0.003 | 1.919 ± 0.018 |
| GGCCAA | 1.934 ± 0.015 | 1.87 ± 0.022 |
| AGCCGU | 1.92 ± 0.03 | 1.69 ± 0.024 |
| AGCCGC | 1.9 ± 0.096 | 1.84 ± 0.0076 |
| GGCGUU | 2.0064 ± 0.00076 | 1.966 ± 0.011 |
| GGCGUC | 1.94 ± 0.073 | 1.901 ± 0.014 |
| GGCGUA | 1.908 ± 0.015 | 1.858 ± 0.00033 |
| GGCCCA | 1.95 ± 0.026 | 1.97 ± 0.024 |
| GGCCCG | 1.974 ± 0.011 | 1.88 ± 0.03 |
| GGCCCC | 1.95 ± 0.12 | 1.97 ± 0.021 |
| GGCCCU | 2.037 ± 0.02 | 2 ± 0.034 |
| AGCCAC | 1.931 ± 0.014 | 1.8318 ± 6.2e-05 |
| AGCGUA | 1.94 ± 0.027 | 1.77 ± 0.034 |
| AGCGUU | 1.93 ± 0.028 | 1.805 ± 0.011 |
| GGCAGG | 1.874 ± 0.0049 | 1.496 ± 0.0048 |

| Variant | normalized RNA/DNA level with ligand (log10) (hypoxanthine [1]) | normalized RNA/DNA level without ligand (log10) (hypoxanthine [2]) |
| --- | --- | --- |
| UGCGCC | 1.989 ± 0.0081 | 1.93 ± 0.065 |
| UGCGCA | 1.94 ± 0.034 | 1.82 ± 0.052 |
| UGCGCU | 1.966 ± 0.0057 | 1.93 ± 0.023 |
| CGCCUU | 1.94 ± 0.033 | 1.92 ± 0.068 |
| CGCCUG | 2 ± 0.053 | 1.9 ± 0.04 |
| CGCCUA | 1.98 ± 0.092 | 1.848 ± 0.014 |
| AGCACU | 1.96 ± 0.039 | 1.8853 ± 0.00075 |
| CGCACG | 1.95 ± 0.089 | 1.87 ± 0.044 |
| CGCACU | 2 ± 0.11 | 1.89 ± 0.066 |
| CGCACC | 1.93 ± 0.093 | 1.9 ± 0.028 |
| UGCCAA | 1.906 ± 0.018 | 1.84 ± 0.021 |
| UGCCAU | 1.909 ± 0.0083 | 1.817 ± 0.015 |
| UGCAUG | 1.9 ± 0.028 | 1.75 ± 0.024 |
| UGCAUU | 1.981 ± 0.01 | 1.88 ± 0.018 |
| UGCAUC | 2.02 ± 0.031 | 2.04 ± 0.052 |
| UGCAUA | 1.964 ± 0.0062 | 1.83 ± 0.022 |
| AGCCUA | 1.987 ± 0.019 | 1.87 ± 0.028 |
| AGCCUC | 2.01 ± 0.082 | 1.959 ± 0.019 |
